How the values were obtained:
[1] = target: T1, Permanent Lys26 CNP-38 PEG4x10 kDa conjugate 12g (not fully specified)
T1 chain: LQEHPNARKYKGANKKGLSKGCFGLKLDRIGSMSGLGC

[2] = target: T2, Permanent N-terminal CNP-34 PEG 5 kDa conjugate 14e (not fully specified)
T2 chain: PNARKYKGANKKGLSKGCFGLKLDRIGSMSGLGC

[3] = target: T3, Permanent N-terminal CNP-38 PEG 5 kDa conjugate 15e (not fully specified)
T3 chain: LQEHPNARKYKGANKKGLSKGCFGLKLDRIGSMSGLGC

Measured: half life norm. [h] (in vitro NEP digest)

B1: recombinant human Neutral Endopeptidase (NEP) (protein)
chain: YDDGICKSSDCIKSAARLIQNMDATTEPCTDFFKYACGGWLKRNVIPETSSRYGNFDILRDELEVVLKDVLQEPKTEDIVAVQKAKALYRSCINESAIDSRGGEPLLKLLPDIYGWPVATENWEQKYGASWTAEKAIAQLNSKYGKKVLINLFVGTDDKNSVNHVIHIDQPRLGLPSRDYYECTGIYKEACTAYVDFMISVARLIRQEERLPIDENQLALEMNKVMELEKEIANATAKPEDRNDPMLLYNKMTLAQIQNNFSLEINGKPFSWLNFTNEIMSTVNISITNEEDVVVYAPEYLTKLKPILTKYSARDLQNLMSWRFIMDLVSSLSRTYKESRNAFRKALYGTTSETATWRRCANYVNGNMENAVGRLYVEAAFAGESKHVVEDLIAQIREVFIQTLDDLTWMDAETKKRAEEKALAIKERIGYPDDIVSNDNKLNNEYLELNYKEDEYFENIIQNLKFSQSKQLKKLREKVDKDEWISGAAVVNAFYSSGRNQIVFPAGILQPPFFSAQQSNSLNYGGIGMVIGHEITHGFDDNGRNFNKDGDLVDWWTQQSASNFKEQSQCMVYQYGNFSWDLAGGQHLNGINTLGENIADNGGLGQAYRAYQNYIKKNGEEKLLPGLDLNHKQLFFLNFAQVWCGTYRPEYAVNSIKTDVHSPGNFRIIGTLQNSAEFSEAFHCRKNSYMNPEKKCRVW
Almost no proteolysis after 4 days.: all assays above
